Test results reported in patent publication US11274129B2, “Methods for protein tyrosine phosphorylation profiling with variant SH2 domains” (priority 2016, dated 2022).

Key:
[1] = target: RSKL-pTyr^423 peptide YQHpYDLDLKD; conditions: peptide RSKL-pTyr^423 YQHpYDLDLKD; read-out: equilibrium dissociation constant (Kd); cited from earlier work
[2] = target: EGFR-pTyr^1110 peptide NPVpYHNQPLN; conditions: peptide EGFR-pTyr^1110 NPVpYHNQPLN; read-out: equilibrium dissociation constant (Kd); cited from earlier work
[3] = target: Designed peptide GGpYGG; conditions: read-out: equilibrium dissociation constant (Kd); cited from earlier work
[4] = target: ShcA-pTyr^239 peptide DHQpYYNDFPG; conditions: peptide ShcA-pTyr^239 DHQpYYNDFPG; read-out: equilibrium dissociation constant (Kd); cited from earlier work
[5] = target: MidT-pTyr^324 peptide EPQpYEEIPIYL; conditions: peptide MidT-pTyr^324 EPQpYEEIPIYL; read-out: equilibrium dissociation constant (Kd); cited from earlier work
[6] = target: ShcA-pTyr^317 peptide DPSpYVNVQNL; conditions: peptide ShcA-pTyr^317 DPSpYVNVQNL; read-out: equilibrium dissociation constant (Kd); cited from earlier work
[7] = tested on: mixture of 54 different pTyr-including peptides derived from 54 TK activation loops; assay: Capture of pTyr-including peptides from a mixture of TK activation loop peptides, scheduled PRM; format: binding
Protocol: Equal molar amounts (10 nmole) of the wild-type (wt) human Src SH2 domain and the DM and TrM human Src SH2 Superbinders (SEQ ID NO: 14 and 5, respectively) expressed with His6 and GST tags were used to capture pTyr-including peptides from a mixture of 54 different pTyr-including peptides (10 pmole each) derived from 54 TK activation loops. The isolated peptides were identified by PRM and quantified based on the corresponding MS peak area. 1.8% of the eluted peptides were injected into a Q-Exactive (Thermo Fisher) preceded with a nano-LC system.
Shown are the amounts of pTyr-including peptides captured, based on the corresponding peak area of PRM signal, by each of the parent human Src SH2 domain and the DM and TrM human Src SH2 Superbinders.

[8] = target: VEGFR1-pTyr^1213 peptide DVRpYVNAAKF; conditions: peptide VEGFR1-pTyr^1213 DVRpYVNAAKF; read-out: equilibrium dissociation constant (Kd); cited from earlier work
[9] = target: EGFR-pTyr^978 peptide PQRpYLVIQGD; conditions: peptide EGFR-pTyr^978 PQRpYLVIQGD; read-out: equilibrium dissociation constant (Kd); cited from earlier work

B1: Triple mutant: TrM human Src SH2 domain variant with Thr183Val, Cys188Ala and Lys206Leu; His6/GST-tagged form SEQ ID NO: 11 (protein)
chain: DSIQAEEWYFGKITRRESERLLLNAENPRGTFLVRESETVKGAYALSVSDFDNAKGLNVKHYLIRKLDSGGFYITSRTQFNSLQQLVAYYSKHADGLCHRLTTVCPTSK
modifications: SH2 protein domain; TrM human Src SH2 domain
- Kd [1]: 13 nM
- Kd [2]: 76 nM
- Kd [3]: 510 nM
- Kd [4]: 3.8 nM
- Kd [5]: 3.8 nM
- Kd [6]: 7.5 nM
- number of the 54 pTyr-including peptides captured / detected by PRM ([7]; 10 nmole SH2 domain, 10 pmole each peptide): 54
- PRM signal peak area ([7]; BLK (pTyr389) IIDSEpYTAQEGAK, fragment ion b2): 156,244
- PRM signal peak area ([7]; BMX (pTyr566) YVLDDQpYVSSVGTK, fragment ion b2): 151,470
- PRM signal peak area ([7]; BTK (pTyr551) YVLDDEpYTSSVGSK, fragment ion b2): 1,311,693
- PRM signal peak area ([7]; DDR1 (pTyr796/797) NLYAGDpYpYR, fragment ion b2): 337,871
- PRM signal peak area ([7]; DDR2 (pTyr740/741) NLYSGDpYpYR, fragment ion y6): 184,684
- PRM signal peak area ([7]; EPHA1 (pTyr781) LLDDFDGTpYETQGGK, fragment ion y9): 188,365
- PRM signal peak area ([7]; EPHA2 (pTyr772) VLEDDPEATpYTTSGGK, fragment ion y11): 347,030
- PRM signal peak area ([7]; EPHA3 (pTyr779) VLEDDPEAApYTTR, fragment ion y8): 394,218
- PRM signal peak area ([7]; EPHA6 (pTyr830) VLEDDPEAApYTTTGGK, fragment ion b2): 287,653
- PRM signal peak area ([7]; EPHA8 (pTyr793) VLEDDPDAApYTTTGGK, fragment ion y11): 585,234
- PRM signal peak area ([7]; EPHB1 (pTyr778) YLQDDTSDPTpYTSSLGGK, fragment ion y10): 205,974
- PRM signal peak area ([7]; EPHB2 (pTyr780) FLEDDTSDPTpYTSALGGK, fragment ion Y3): 215,302
- PRM signal peak area ([7]; EPHB3 (pTyr792) FLEDDPSDPTpYTSSLGGK, fragment ion y10): 260,454
- PRM signal peak area ([7]; EPHB4 (pTyr774) FLEENSSDPTpYTSSLGGK, fragment ion y10): 134,156
- PRM signal peak area ([7]; ERBB2 (pTyr877) LLDIDETEpYHADGGK, fragment ion b3): 42,655
- PRM signal peak area ([7]; ERBB3 (pTyr866) QLLpYSEAK, fragment ion y2): 164,128
- PRM signal peak area ([7]; FER (pTyr714) QEDGGVpYSSSGLK, fragment ion y7): 27,417
- PRM signal peak area ([7]; FES (pTyr713) EEADGVpYAASGGLR, fragment ion y8): 25,101
- PRM signal peak area ([7]; FGFR1 (pTyr653/654) DIHHIDpYpYK, fragment ion b6): 51,243
- PRM signal peak area ([7]; FGFR2 (pTyr656/657) DINNIDpYpYK, fragment ion y4): 87,143
- PRM signal peak area ([7]; FGFR3 (pTyr647/648) DVHNLDpYpYK, fragment ion b3): 258,435
- PRM signal peak area ([7]; FGFR4 (pTyr642/643) GVHHIDpYpYK, fragment ion b3): 36,105
- PRM signal peak area ([7]; FRK (pTyr387) VDNEDIpYESR, fragment ion y6): 290,546
- PRM signal peak area ([7]; GSK3 (pTyr279/216) GEPNVSpYICSR, fragment ion y6): 48,337
- PRM signal peak area ([7]; HCK (pTyr411) VIEDNEpYTAR, fragment ion b2): 383,521
- PRM signal peak area ([7]; INSRR (pTyr1145/1146) DVYETDpYpYR, fragment ion y5): 20,796
- PRM signal peak area ([7]; ITK (pTyr512) FVLDDQpYTSSTGTK, fragment ion y11): 403,125
- PRM signal peak area ([7]; JAK1 (pTyr1034/1035) EpYpYTVK, fragment ion y2): 109,611
- PRM signal peak area ([7]; JAK2 (pTyr221) IQDpYHILTR, fragment ion Y3): 85,513
- PRM signal peak area ([7]; JAK3 (pTyr980/981) DpYpYVVR, fragment ion y2): 19,712
- PRM signal peak area ([7]; KIT (pTyr823) NDSNpYVVK, fragment ion b2): 234,665
- PRM signal peak area ([7]; LMTK2 (pTyr295) EDpYIETDDK, fragment ion b2): 20,896
- PRM signal peak area ([7]; LMTK3 (pTyr296/297) EDpYpYLTPER, fragment ion y3): 375,974
- PRM signal peak area ([7]; MERTK (pTyr753/754) IYSGDpYpYR, fragment ion b2): 26,483
- PRM signal peak area ([7]; MET (pTyr1234/1235) EpYpYSVHNK, fragment ion y2): 111,218
- PRM signal peak area ([7]; MUSK (pTyr755/756) NIYSADpYpYK, fragment ion y2): 178,086
- PRM signal peak area ([7]; NTRK1 (pTyr680/681) DIYSTDpYpYR, fragment ion b2): 103,368
- PRM signal peak area ([7]; NTRK2 (pTyr706/707) DVYSTDpYpYR, fragment ion y4): 114,762
- PRM signal peak area ([7]; PGFRB (pTyr857) DSNpYISK, fragment ion y2): 398,271
- PRM signal peak area ([7]; PTK7 (pTyr960/961) DVYNSEpYpYHFR, fragment ion b2): 8,863
- PRM signal peak area ([7]; RET (pTyr905) DVYEEDSpYVK, fragment ion b2): 882,529
- PRM signal peak area ([7]; RON (pTyr1238/1239) EpYpYSVQQHR, fragment ion y4): 44,290
- PRM signal peak area ([7]; ROR1 (pTyr645/646) EIYSADpYpYR, fragment ion y6): 177,244
- PRM signal peak area ([7]; ROR2 (pTyr645/646) EVYAADpYpYK, fragment ion y5): 334,295
- PRM signal peak area ([7]; SRC (pTyr419) LIEDNEpYTAR, fragment ion b2): 99,515
- PRM signal peak area ([7]; SRMS (pTyr380) DDIpYSPSSSSK, fragment ion y8): 478,598
- PRM signal peak area ([7]; TEC (pTyr519) YVLDDQpYTSSSGAK, fragment ion b2): 781,110
- PRM signal peak area ([7]; TIE1 (pTyr1007) GEEVpYVK, fragment ion b2): 409,242
- PRM signal peak area ([7]; TIE2 (pTyr992) GQEVpYVK, fragment ion b2): 209,701
- PRM signal peak area ([7]; TXK (pTyr420) YVLDDEpYVSSFGAK, fragment ion b2): 271,650
- PRM signal peak area ([7]; TYK2 (pTyr1054/1055) AVPEGHEpYpYR, fragment ion y6): 53,473
- PRM signal peak area ([7]; VGFR1 (pTyr1053) NPDpYVR, fragment ion y3): 158,244
- PRM signal peak area ([7]; VGFR2 (pTyr1059) DPDpYVR, fragment ion Y3): 196,659
- Kd [8]: 23 nM
- Kd [9]: 7.7 nM
